Measurements reported in patent publication US20160376366A1 (IMMUNOMEDICS, published 2016).

B1: humanized RFB4 (hRFB4) anti-CD22 antibody, IgG (antibody, V domains shown)
VH: QVQLVQSGAEVKKPGSSVKVSCKASGFTFSIYDMSWVRQAPGQGLEWVAYISSGGGTTYYPDTVKGRFTITADESTNTAYMELSSLRSEDTAFYFCARHSGYGSSYGVLFAYWGQGTLVTVSS
VL: DIQLTQSPSSLSASVGDRVTISCRASQDISNYLNWYQQKPGKAPKLLIYYTSILHSGVPSRFSGSGSGTDYTFTISSLQPEDIATYYCQQGNTLPWTFGGGTKVQIKR
notes: RFB4 CDRs were inserted into the FR and constant regions of hLL2; also called hRFB4 IgG
B2: humanized anti-CD22 LL2 antibody (hLL2, epratuzumab), IgG (antibody, V domains shown)
VH: QVQLQQSGAEVKKPGSSVKVSCKASGYTFTSYWLHWVRQAPGQGLEWIGYIYPRNDYTEYNQNFKDKATITADESTNTAYMELSSLRSEDTAFYFCARRDITTFYWGQGTTVTVSS
VL: DIQLTQSPSSLSASVGDRVTMSCKSSQSVLYSANHKNYLAWYQQKPGKAPKLLIYWASTRESGVPSRFSGSGSGTDFTFTISSLQPEDIATYYCHQYLSSWTFGGGTKVQIKR
notes: Tested as IgG with human constant regions; also called hLL2 IgG

Experiments:
[1] = molecular target: T1, CD22 on CD22+ Daudi cells and on B cells within PBMCs (human, UniProt P20273 20-847); assay: ELISA on CD22+ Daudi cells (FIG. 2); reference hLL2
T1 construct: whole, on cells; The target was presented on human cells; also called human CD22

[2] = molecular target: T1, CD22 on CD22+ Daudi cells and on B …; assay: flow cytometry (MFI) on CD22+ Daudi cells
Experimental: (§1) FIG. 3. […] Binding activity at indicated concentrations is given as the MFI. Measurements were performed in triplicate; standard deviations are shown as bars.
(§2) Cells were pelleted at 200 g at 4° C. for 5 min and washed twice with 500 μl of FACS buffer. For detection of bound antibodies, cells were incubated with saturating amounts of FITC conjugated F(ab) Fragment goat anti-Human IgG, Fc specific (13 μg/ml; Jackson Immuno Research, West Grove, Pa.) for 45 min at 4° C. and washed again with 500 μl of FACS buffer. Stained cells were analyzed on a FACSCAN™ Flow Cytometer (BD Bioscience, San Jose, Calif.), and median fluorescence intensity (MFI) was calculated using […]™ software (BD Bioscience).

[3] = molecular target: T1, CD22 on CD22+ Daudi cells and on B …; assay: flow cytometry on CD22+ Daudi cells; reference hLL2 IgG
Experimental: as §1, §2

[4] = molecular target: T1, CD22 on CD22+ Daudi cells and on B …; assay: flow cytometry on CD22+ Daudi cells, MFI, FITC anti-human Fc detection
Experimental: as §1, §2

[5] = molecular target: T1, CD22 on CD22+ Daudi cells and on B …; assay: ELISA on CD22+ Daudi cells

Binder | fold higher binding affinity than hLL2 [1] | EC50 [2] | fold higher affinity (EC50) than hLL2 [3] | EC50 [4] | Kd [5]
B1 | 10 fold | 0.055 µg/mL | 19 fold | 0.4 nM | –
B2 | – | 1.03 µg/mL | – | 6.9 nM | 7.6 nM
